We go through one molecule from article PMC9004346 (2022).

Bridges are numbered along the chain shown (N, C = ends). Where no end group is shown, it is not given here. C4 = constraint linking the two cyclising residues; C5 = constraint linking the two cyclising residues; C7 = constraint linking the two cyclising residues

What all share (test): fluorescence polarisation competition
In general terms: Fluorescence polarisation rises when a labelled molecule tumbles more slowly, as on binding a larger partner.

One test has as its target T1, P1.
T1 chain: Ac-RLYGFK-NH2

Another test deals with T2, P3.
T2 chain: Ac-RLYGFKW-NH2

A further test has as its target T3, P7C8 (bridge 1-8; not fully specified (N-terminus, C-terminus, bridges); printed as C_C8_RLYGFKW_C8_; also: structure of constraint C8 not given here in text).
T3 chain: CRLYGFKW

The next test addresses T4, P5C4 (linker 1-8 via C4; not fully specified (N-terminus, C-terminus); also: structure of constraint C4 not given here in text).
T4 chain: CRLYGFKC

A further test addresses T5, P4.
T5 chain: Ac-RLYGFKWH-NH2

For another test, the target named is T6, P5C5 (linker 1-8 via C5; not fully specified (N-terminus, C-terminus); also: structure of constraint C5 not given here in text).
T6 chain: CRLYGFKC

Another test concerns the target T7, P5C7 (linker 1-8 via C7; not fully specified (N-terminus, C-terminus); also: structure of constraint C7 not given here in text).
T7 chain: CRLYGFKC

The next test has as its target T8, P2.
T8 chain: Ac-LYGFKW-NH2

B1: CK2α (protein)
chain: MSGPVPSRARVYTDVNTHRPREYWDYESHVVEWGNQDDYQLVRKLGRGKYSEVFEAINITNNEKVVVKILKPVKKKKIKREIKILENLRGGPNIITLADIVKDPVSRTPALVFEHVNNTDFKQLYQTLTDYDIRFYMYEILKALDYCHSMGIMHRDVKPHNVMIDHEHRKLRLIDWGLAEFYHPGQEYNVRVASRYFKGPELLVDYQMYDYSLDMWSLGCMLASMIFRKEPFFHGHDNYDQLVRIAKVLGTEDLYDYIDKYNIELDPRFNDILGRHSRKRWERFVHSENQHLVSPEALDFLDKLLRYDHQSRLTAREAMEHPYFYTVVKDQARMGSSSMPGGSTPVSSANMMSGISSVPTPSPLGPLAGSPVIAAANPLGMPVPAAAGAQQ
B1: the IC50 (in general, the concentration at which inhibition is half-maximal) is more than 500 µM in the test with P1; 22.5 µM with P3; 15.6 µM in the test with P7C8; 54.6 µM with P5C4; 16.7 µM with P4; 28.9 µM in the test with P5C5. Further, the IC50 was 40 µM with P5C7 and 137 µM with P2.
